Consider 11 sequences from a protein production outcome set (Wang et al. 2014).

This data set in a line: label from the status in PepcDB records.
“MATVAECNHSVLDLVTKMATMLVADEMKPKKQTAVLVAKKRSKIYESLLHSETMSSQDKLEMLHQVTSEVAKNPDRMDMLLRFQNLLEGQDKEESEITQDQDEENQSEVVIKRIKAGPLQLIETIEIVEEALHPKAFPDINQMNRALKPLQLQPYSDILTTSNLNINFPPEKLIPKIIPSTVIRMGLSESITRMRNEMEKPMHPPPRLPVLAKKVVAPLEDERPFVAQPGPEKHFVSDKLLTNELKILRNKNLVLNYLDEATLIDHLKKAACGIESLTFPISSADKLELRVRPNTTLPTMLPEVLADFANHFIRAGCAFLRLSSRTKWNNIAEMRLERPLNRAMRETIMDYLSTTRQFLLSLQADSLFQLLNNTSTAIQLLCQLDRMFENEPRLNLNTGITGSFLLSSIWLAIDTCGNKDFLHLLIYFLRCISRNYFIQLQRWIYHGELDESVNEIFISRCLNTSPSFTNQCSKEFFDKSYQVDNEAIPEFLVGCEEEILQCGKYNLVLRAYNAQHPVFDVQYPDIVVCLTEQQLKNMRRNLADKYAIIYKRFGWCSMQSIFEDRMATKRVFANLMVKRTQAHLDAWAQKQRELQIKANAQKKLQNDQLNAEQERIQQNHLEKRRQDIVNELAFQRECERMEDKLLEREKQELQKKVVQLAAVLSSSPDRSTVSDLSFASCIEEPDCLAESSSDKDDANTENSEDEATKQLDKTLNVPLEQPEAEYQADVDVDQPRGKECSLPNVFQYQRSHSDVINSNEHPTTQAEFNRNRQHGLSSDQFQQCHATVHLQESDLLKTAASTSSGLHAEIPQDINANLNCPDTKELTELQRNRKRNEHHDGFFSFNSTEDEHTHRLRSLLNSNTERGRNRLRVMETEFGLGYKNTDIETKATPCLPLEIDKLHVEIPLAVLTPMSTTSDVDFGDPSPRELPEIADTANNNNVSGSIESLSPELPKPVLAIAKPTSLLPKLDFGMKDERETEQDRDKVSTLPEACNPFMARRCLQLSVMAPLNAYYGLLRNEVLRIFQEQRIYEHFRKLRNYFFLVDGQFGATLTNEILGRIRAGVGPRSLSQKGILDTILTNALAACSADETTVSENLTLNCTTIPDTLNFLSVEATSMLKLNCKIDWPLNMVISSETISKYGQIFGYLLKLRHVSFVLDGTYEYLQQMGKLLGPELRTCTHFRHMQMMRHKMSHFMTSFQTHLVAKALLSTWKSFKEELCTADSIEALYKQHVAYLKRVAFLALLNRRSAKVKETIDNILVIILRFCKVIQSQSFIVDQDNYFVHPRFKRLQQEEAEFEKFLQYLIYLGNKAAASGYQEEIGDLICIINFNHYYKVSGNHTGSSMEDKKC”: the protein production result is recorded as “failed”.

With “MATVRLVTRKRAGRSSRPSAASLPARSAVERNSSGPLLSKSRYVRIMAARRSSSLRQQQGRLEWGGRSRPVELATRSFEKQGDATAFFKAMLNRHQPGERVSDEDGLDVAALLERHTEYVAKVGCGVSHFQVMMTEHGTQCFRIIRTDGSGTDFSYPHCISQRPPSRKQEVAQAFRRAVRFDLYKARDNLFATHSGSDGLVSCAVTGERIAQDEGHMDHRPPMTFEVIVTTFLCGRGLSLDNVPLTTGKDDQVSPEVTDNALSEAFRAYHAGIARLDFVRNTVNLAQASRHRLKDGRITLTG”, the protein production entry was “failed”.

For the sequence “MAVAALLPQRPTSLEISMEGETFLWLIRHAPVDGVAGTIHAPDAPADLGDRAQLQALRQRLPRDSASYASPSRRTVETARALGLEPDLVGNFSEQDFGDWTGRRHDELAASGGEAYAQFWGDPAHARPPGGESFEDQVARVRHGLSRIGAGPATLVVHSGTIRAALCIALDLAPQSALRFVIDPLSLTRIDRLATGWRVVSVNQRVV”, the protein production entry was “failed”.

Consider “MAVAQADPGSDPAGGARFFCTAGRGLEPFLMREVRARLEATQVEYISGKVFFTTCSDLPSMKKLKSAERLFVLIKKQLPIAVSSLHKGKILNEMQRFVNDDPGSWLEAISLWKKLLEHDPKREKVSQRDANPLKRKAGENETIIAKKLKVEEKQEVAKDHGESQEDKLLQGSPEQGEAVTRTELQDHRLNSTTEKAADAQDQEDLTFRVSCRCTGNVRKVITGQEAGRVIGLALMRQFGWKADLRNPNIEIFMHLSDAYSVVGIPLLRMPLASRTYIQTAGLRSTIAWAMASIAEIKAGALVLDPMCGLGTILVEAAEEWPDVFYMGADMSDAQLLGACDNLKAAGLTDRIELLKSSVTDLPLPSQSTDVIISDIPFGKKFKLGKDIKSILQEMERVLRVGGAMVLLLSEDHHRHLTDCGGSSIPLTSKGHIAEPEMKTLSNPDRTGAPDTASPSQRASSVQCLGRMRPCGSLVPVESFKVSLGKTDAFICKYKKAQASGLSSAECHEPGAHTEMAAMQESPSLQDSL”, for which the protein production entry is recorded as “failed”.

As for “MAVISPATRFAPPLNRPFHRRSILASFHSSSRNFLFLGKPTPSSTIVSVRCQKPVSDGVSSMESMNHVASSVSSSIDFLTLCHRLKGINGPESIADHMYRMALMALIAGDLTGVDRERCIKMAIVHDIAEAIVGDITPSDGVPKEEKSRRETAALKEMCEVLGGGLRAEEITELWLEYENNASLEANIVKDFDKVEMILQALEYEAEHGKVLDEFFISTAGKFQTEIGKSWAAEINARRKSQLTNRQR”, the protein production entry is “failed”.

For the sequence “MAVKFFGQFLVEKGVVSRETLLQAIELQESVNLSFGATSLAMGILTEADIERIHNAQRIEDLRFGDMAVKLGLLTSEQMMQVLTRQKNTHLYIGEALVKVGSFQADELPKYLEEFKADQAQYATDTVVIPTGVSEPKIWEMVADLSYKMLTRVALLVFRPEPCFVADRVPAMDVYATMDFTGDISGRYFMGVTAATQKKIAKAILKEPNVDNEPKEILDDTVMEFVNVALGNIAAKAAQSGKSMEIAPPEIIEAPDGIQVPDGHKALCFPVCLSDGDRIELAVFIQQLEHHHHHH”, the protein production entry was “not failed”.

“MAVMDPWLIWLIVSAVLVLAEIFTLTAALGMLGVAALITAGSAAAGLSTPFQFLVFTVVSAVTLFFLRPVALRHLVQPQTQRFGVDALVGQAAYVVSDVTGREGRVRIGGEEWTARSYDETLVIPRGATVDVLEISGTTAFVYPRE”: the protein production result is given as “failed”.

“MAVNACLSPPEMMAVRPGEGVPNSKSTQGKTRLYLTKPSWIVRTQSGAKTCMKSKAKGRCVICHGSGRVDCFNCCGKGRTNCVDVEMLPRGEWPKWCKSCGGSGLSDCSRCLGTGERASFFFLWFDILIVMSSVALPAMSCRSSGEQVKEIRVCTNRTCRRQGSFQILETLTALAPPELRVTHCACLGRCGSGPNLVALPQGLILRHCATPSRAAEILFSLCGDGREASSSSAVTDALTALALTNNALSQIDAGNFSEAEALLTQALELKPYGGLHRIFKHRSVAKLGMLDYSGALEDISQALALAPNYSEPYICQGDVYVAKGQYDLAEKSYLTCLEIDPSLRRSKPFKARIAKLQQKVVELDVT”: the protein production entry is on record as “failed”.

As to “MAVPRWAVRDLTQISSARELSLRLEQARNDFRATVGSICYFNASARTPGQFDDEYIMTDQSLTYVYADGVTAQSCAMNRLLPSSSSNFGAAATAIPPWLLDPPRLNRLLREGTDEGGLVNYYEGPHKNAFFLAIMRSCIFVRPGADEINGVSYDFFARSGNYTEQLEHHHHHH”, the protein production entry is on record as “failed”.

Take “MAVRKLGVLTSGGDCPGLNAVIRAIARHAVGNYGWELWGIAYATQGLLKRQAIALSPHHFDRQSLDPLLCSGGTILGSINRGDTLAHQAEILAGYQELGLDALIGIGGDGSLAILRQLAEAGRWQFIGIPKTIDNDVALTERAIGFDTAIHTVAEALLSLGSTAASHDRIMIAEVMGRQSGHLALQGGIAGGADVILLPEIPYRLLELCHYLQQLRDRWQRRYAVIAIAEGTHHPPEVTQGPGSLGEQLVQAITAQDPTLDARVTVLGHVQRGGNPVASDRLLATQMGYAAVERLAAGASGEMMAWQGGRVVSVPLEAVCLQSPTLVDPHSPLVDTAAGLGIFLGDRSLTPWRGSACPTH”: the protein production entry is reported as “failed”.

Consider “MAVSSLGNIYCAAAGFHSVPIVICQTSCVRWRGSGRTSGAICCAECVARGSDVRAYFRGQDKDAVGKDAVAPGVGCVQPVAIGIHAGLYRWRDRLRIGIDGDHARCRPDVAHGELDVGASAVPRRGSHGHRGRARAGGLVQELSVREQPPVDHRHLRAVLRLAGAAALLTQGRNAQGAVRELVCARYRHAVSGPRQPQGRGTGATSGGCVVAPGQTVVSVSRRHPQPHRRIIAIQGRATAGCYRCWRAGGSGGAGRLRQGVAGRWPVQGAPRHHPRADRYADRCDRAGCAGSPTIDRAGTQGRGCNASPQDLSSTLMDFVVPHDHPCLPGHFPGRPVVPGVVVLDHVLQAVEALHGPRAAARLPQVKFVQPLLPGQTASVTLEGDGPRWRFRVQRADVVLVSGELVAEAGT”, for which the protein production result is listed as “failed”.
